From article PMC9902482 (2023)
Where “and” joins values, the source holds several entries; their conditions need not be identical. Identical values can stand only once.

T1: Lec domain of ADGRL3 (human, UniProt Q9HAR2 24-126, biotin on the Avi-tag (BirA) in the flow cytometry experiments)
T1 chain: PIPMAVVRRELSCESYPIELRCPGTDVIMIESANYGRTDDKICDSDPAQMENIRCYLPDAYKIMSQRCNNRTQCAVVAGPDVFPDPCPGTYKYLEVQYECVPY

B1: ADGRL3 Lec/Olf fragment (domain or fragment)
chain: PIPMAVVRRELSCESYPIELRCPGTDVIMIESANYGRTDDKICDSDPAQMENIRCYLPDAYKIMSQRCNNRTQCAVVAGPDVFPDPCPGTYKYLEVQYECVPYKVEQKVFLCPGLLKGVYQSEHLFESDHQSGAWCKDPLQASDKIYYMPWTPYRTDTLTEYSSKDDFIAGRPTTTYKLPHRVDGTGFVVYDGALFFNKERTRNIVKFDLRTRIKSGEAIIANANYHDTSPYRWGGKSDIDLAVDENGLWVIYATEQNNGKIVISQLNPYTLRIEGTWDTAYDKRSASNAFMICGILYVVKSVYEDDDNEATGNKIDYIYNTDQSKDSLVDVPFPNSYQYIAAVDYNPRDNLLYVWNNYHVVKYSLDFGPLD
B2: full-length extracellular region (ECR) of ADGRL3 (domain or fragment)
chain 1: FSRAPIPMAVVRRELSCESYPIELRCPGTDVIMIESANYGRTDDKICDSDPAQMENIRCYLPDAYKIMSQRCNNRTQCAVVAGPDVFPDPCPGTYKYLEVQYECVPYKVEQKVFLCPGLLKGVYQSEHLFESDHQSGAWCKDPLQASDKIYYMPWTPYRTDTLTEYSSKDDFIAGRPTTTYKLPHRVDGTGFVVYDGALFFNKERTRNIVKFDLRTRIKSGEAIIANANYHDTSPYRWGGKSDIDLAVDENGLWVIYATEQNNGKIVISQLNPYTLRIEGTWDTAYDKRSASNAFMICGILYVVKSVYEDDDNEATGNKIDYIYNTDQSKDSLVDVPFPNSYQYIAAVDYNPRDNLLYVWNNYHVVKYSLDFGPLDSRSGQAHHGQVSYISPPIHLDSELERPSVKDISTTGPLGMGSTTTSTTLRTTTLSPGRSTTPSVSGRRNRSTSTPSPAVEVLDDMTTHLPSASSQIPALEESCEAVEAREIMWFKTRQGQIAKQPCPAGTIGVSTYLCLAPDGIWDPQGPDLSNCSSPWVNHITQKLKSGETAANIARELAEQTRNHLNAGDITYSVRAMDQLVGLLDVQLRNLTPGGKDSAARSLNKAMVETVNNLLQPQALNAWRDLTTSDQLRAATMLLHTVEESAFVLADNLLKTDIVRENTDNIKLEVARLSTEGNLEDLKFPENMGHGSTIQLSANTLKQNGRNGEIRVAFVLYNNLGPYLSTENASMKLGTEALSTNHSVIVNSPVITAAINKEFSNKVYLADPVVFTVKHIKQSEENFNPNCSFWSYSKRTMTGYWSTQGCRLLTTNKTHTTCSCNHL
chain 2: TNFAVLMAHVEVKHSDAVHDL
modifications: biotin on the Avi-tag (BirA) where used biotinylated

What was measured:
LK31 = experiment: SPR
LK12 = experiment: SPR
LK29 = experiment: SPR
LK25 = experiment: ELISA
ADGRL3 Lec/Olf fragment [1] = biological target: B1; experiment: SPR
Lec domain of ADGRL3 = biological target: T1, Lec domain of ADGRL3; experiment: SPR
[2] = biological target: B2; experiment: SPR
ADGRL3 Lec/Olf fragment [3] = biological target: B1; experiment: SPR
[4] = biological target: B2; experiment: SPR

Kd (LK31) | koff (LK31) | Kd (LK12) | koff (LK12) | Kd (LK29) | koff (LK29) | Kd (LK25) | koff (ADGRL3 Lec/Olf fragment [1]) | koff (Lec domain of ADGRL3) | koff [2] | Kd (ADGRL3 Lec/Olf fragment [3]) | Kd [4] | Binder
3.6 nM | 0.0029 s⁻¹ | 12.5 nM | 0.0099 s⁻¹ | 2.5 nM | 0.001 s⁻¹ | – | – | – | – | – | – | B1
3.8 nM | 0.002 s⁻¹ | 8.3 nM | 0.0032 s⁻¹ | 4.1 nM | 0.0015 s⁻¹ | 56.8 nM | – | – | – | – | – | B2
– | – | – | – | – | – | – | 0.0066 s⁻¹ and 0.0049 s⁻¹ | 0.0113 s⁻¹ | 0.0058 s⁻¹ | 5.4 nM and 3.7 nM | 4.2 nM | synthetic antibody fragment (sAB) LK30 (Fab, V domains shown) VH: EVQLVESGGGLVQPGGSLRLSCAASGFNIYYSSIHWVRQAPGKGLEWVAYISPYSGSTSYADSVKGRFTISADTSKNTAYLQMNSLRAEDTAVYYCARYKYGQGHMGAFDYWGQGTLVTVSS VL: DIQMTQSPSSLSASVGDRVTITCRASQSVSSAVAWYQQKPGKAPKLLIYSASSLYSGVPSRFSGSRSGTDFTLTISSLQPEDFATYYCQQSNTELVTFGQGTKVEIK
